Laboratory results from paper PMC3240612, “Quantitative Multicolor Super-Resolution Microscopy Reveals Tetherin HIV-1 Interaction” (PLoS Pathogens, 2011).

Experiments:
[1] = target: T1, HA-tetherin (N-terminal HA-tagged tetherin), in virions released by PI-PLC (human), Q10589; settings: remark: other sources report otherwise
T1 chain: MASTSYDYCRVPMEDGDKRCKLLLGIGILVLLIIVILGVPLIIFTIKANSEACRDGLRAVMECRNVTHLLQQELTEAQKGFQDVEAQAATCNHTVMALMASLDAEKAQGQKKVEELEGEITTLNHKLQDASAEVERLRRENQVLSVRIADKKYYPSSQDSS

[2] = target: T2, tetherin-HA (HA tag inserted after the extracellular coiled-coil domain), in virions released by PI-PLC (human), Q10589; settings: remark: other sources report otherwise
T2 chain: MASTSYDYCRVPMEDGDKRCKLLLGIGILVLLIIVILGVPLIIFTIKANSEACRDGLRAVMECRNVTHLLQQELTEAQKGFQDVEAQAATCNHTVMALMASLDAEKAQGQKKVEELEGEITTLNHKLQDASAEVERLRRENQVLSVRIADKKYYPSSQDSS

[3] = target: the molecule itself; test: non-reducing against reducing SDS-PAGE with Western blot; virions stripped from 293T cells by subtilisin A (0, 5 or 50 µg/ML), pelleted through sucrose, lysed in RIPA; anti-HA blot without βME and with βME

B1: HA-tetherin (N-terminal HA-tagged tetherin), in virions released by PI-PLC, Q10589 1-161 (natural protein)
chain: MASTSYDYCRVPMEDGDKRCKLLLGIGILVLLIIVILGVPLIIFTIKANSEACRDGLRAVMECRNVTHLLQQELTEAQKGFQDVEAQAATCNHTVMALMASLDAEKAQGQKKVEELEGEITTLNHKLQDASAEVERLRRENQVLSVRIADKKYYPSSQDSS
modifications: here or on the partner: C-terminal GPI anchor, cut by PI-PLC; C-terminal GPI anchor, cut by PI-PLC
stoichiometry N [1]: 2

B2: tetherin-HA (HA tag inserted after the extracellular coiled-coil domain), in virions released by PI-PLC, Q10589 1-161 (natural protein)
chain: MASTSYDYCRVPMEDGDKRCKLLLGIGILVLLIIVILGVPLIIFTIKANSEACRDGLRAVMECRNVTHLLQQELTEAQKGFQDVEAQAATCNHTVMALMASLDAEKAQGQKKVEELEGEITTLNHKLQDASAEVERLRRENQVLSVRIADKKYYPSSQDSS
modifications: here or on the partner: C-terminal GPI anchor, cut by PI-PLC; C-terminal GPI anchor, cut by PI-PLC
stoichiometry N [2]: 2

B3: N-terminal fragment of HA-tetherin left inside virions after subtilisin A treatment (domain or fragment, human, UniProt Q10589 1-67, looked up)
chain: MASTSYDYCRVPMEDGDKRCKLLLGIGILVLLIIVILGVPLIIFTIKANSEACRDGLRAVMECRNVT
notes: tetherin (CD317, BST-2, HM1.24), human, Swiss-Prot Q10589; N-terminal fragment left after subtilisin A cleavage; Disulfide-linked dimer: ~26 kDa without βME, ~13 kDa with βME; also called dimeric N-termini; HA fragment of ~26 kDa (non-reducing), ~13 kDa (reducing); source: 293T, transfected with HIV-1 Δvpu and HA-tetherin; cells treated with subtilisin A; released virions pelleted through sucrose …
stoichiometry N [3]: 2
